Tested on: Escherichia coli TOP10
Test: shrunken log2 fold change of peptide-encoding DNA abundance (4.5 h post-induction vs induction); higher = less antimicrobial activity (less host growth inhibition)
Details: time post-induction: 4.5 h; library: site-saturation at positions 5, 18, 19, 20
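Also: peptides expressed intracellularly from a pBAD plasmid library in pooled LB shake-flask culture, induced with 0.3% L-arabinose, DNA abundance read by NGS, three biological replicates, DESeq2 with apeglm shrinkage.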

Sequence | shrunken log2 fold change
RRIRIRPPRLPRPRPRPLGHPRP | -0.425
RRIRIRPPRLPRPRPRPLIHPRP | -0.556
RRIRIRPPRLPRPRPRPLKHPRP | -0.58
RRIRIRPPRLPRPRPRPLLNPRP | -0.731
RRIRIRPPRLPRPRPRPLMCPRP | -0.164
RRIRIRPPRLPRPRPRPLMHPRP | -0.384
RRIRIRPPRLPRPRPRPLMRPRP | 0.466
RRIRIRPPRLPRPRPRPLPMPRP | -0.204
RRIRIRPPRLPRPRPRPLPVPRP | 0.094
RRIRIRPPRLPRPRPRPLQCPRP | 0.0339
RRIRIRPPRLPRPRPRPLQIPRP | -0.165
RRIRIRPPRLPRPRPRPLQWPRP | -0.013
RRIRIRPPRLPRPRPRPLQYPRP | -0.591
RRIRIRPPRLPRPRPRPLRIPRP | -0.346
RRIRIRPPRLPRPRPRPLRPPRP | 0.583
RRIRIRPPRLPRPRPRPLSPPRP | 1.35
RRIRIRPPRLPRPRPRPLVFPRP | -0.348
RRIRIRPPRLPRPRPRPLVGPRP | -0.0442
RRIRIRPPRLPRPRPRPLVRPRP | 0.0548
RRIRIRPPRLPRPRPRPMCRPRP | -0.236
RRIRIRPPRLPRPRPRPMEAPRP | -0.0793
RRIRIRPPRLPRPRPRPMEQPRP | -0.00783
RRIRIRPPRLPRPRPRPMESPRP | -0.00136
RRIRIRPPRLPRPRPRPMFMPRP | -0.383
RRIRIRPPRLPRPRPRPMGNPRP | 0.0077

Sequence | shrunken log2 fold change
RRIRIRPPRLPRPRPRPMHKPRP | -0.431
RRIRIRPPRLPRPRPRPMHWPRP | -0.194
RRIRIRPPRLPRPRPRPMIRPRP | -0.511
RRIRIRPPRLPRPRPRPMMQPRP | -0.0907
RRIRIRPPRLPRPRPRPMNCPRP | 0.0904
RRIRIRPPRLPRPRPRPMNYPRP | -0.0706
RRIRIRPPRLPRPRPRPMQCPRP | -0.235
RRIRIRPPRLPRPRPRPMRLPRP | 0.0554
RRIRIRPPRLPRPRPRPMSDPRP | -0.102
RRIRIRPPRLPRPRPRPMSKPRP | -0.332
RRIRIRPPRLPRPRPRPMSYPRP | 0.0721
RRIRIRPPRLPRPRPRPMVHPRP | -0.0468
RRIRIRPPRLPRPRPRPMWCPRP | -0.168
RRIRIRPPRLPRPRPRPMYFPRP | -0.609
RRIRIRPPRLPRPRPRPMYGPRP | -0.437
RRIRIRPPRLPRPRPRPNAHPRP | -0.0997
RRIRIRPPRLPRPRPRPNAIPRP | -0.204
RRIRIRPPRLPRPRPRPNAKPRP | 0.0022
RRIRIRPPRLPRPRPRPNAVPRP | -0.266
RRIRIRPPRLPRPRPRPNGEPRP | -0.0757
RRIRIRPPRLPRPRPRPNHGPRP | -0.413
RRIRIRPPRLPRPRPRPNKQPRP | -0.525
RRIRIRPPRLPRPRPRPNMNPRP | -0.773
RRIRIRPPRLPRPRPRPNMWPRP | -0.59
RRIRIRPPRLPRPRPRPNNDPRP | -0.967

Sequence | shrunken log2 fold change
RRIRIRPPRLPRPRPRPNPQPRP | -0.287
RRIRIRPPRLPRPRPRPNQAPRP | -0.0486
RRIRIRPPRLPRPRPRPNQGPRP | 0.0325
RRIRIRPPRLPRPRPRPNQVPRP | -0.429
RRIRIRPPRLPRPRPRPNRLPRP | -0.286
RRIRIRPPRLPRPRPRPNRRPRP | 0.041
RRIRIRPPRLPRPRPRPNRVPRP | -0.0802
RRIRIRPPRLPRPRPRPNSKPRP | -0.899
RRIRIRPPRLPRPRPRPNSLPRP | -0.457
RRIRIRPPRLPRPRPRPNSNPRP | -0.983
RRIRIRPPRLPRPRPRPNSVPRP | -0.342
RRIRIRPPRLPRPRPRPNSWPRP | -0.691
RRIRIRPPRLPRPRPRPNTCPRP | -0.85
RRIRIRPPRLPRPRPRPNVDPRP | -0.272
RRIRIRPPRLPRPRPRPNVQPRP | -0.284
RRIRIRPPRLPRPRPRPNWGPRP | -0.205
RRIRIRPPRLPRPRPRPNWNPRP | -0.388
RRIRIRPPRLPRPRPRPNWWPRP | 0.159
RRIRIRPPRLPRPRPRPNYIPRP | -1.29
RRIRIRPPRLPRPRPRPPAEPRP | 0.583
RRIRIRPPRLPRPRPRPPARPRP | 0.393
RRIRIRPPRLPRPRPRPPCTPRP | -0.332
RRIRIRPPRLPRPRPRPPCVPRP | -0.173
RRIRIRPPRLPRPRPRPPDRPRP | 0.109
RRIRIRPPRLPRPRPRPPFLPRP | -0.0978
